{"source": "paper PMC5983622", "about": "“New Insight into the Octamer of TYMS Stabilized by Intermolecular Cys43-Disulfide” (International Journal of Molecular Sciences, 2018)", "target": "the molecule itself", "test": "SDS-PAGE without reductant (Coomassie brilliant blue, Western blot); purified protein, serially diluted, incubated with loading buffer without beta-mercaptoethanol at 37 °C or 100 °C for 10 min; also with beta-mercaptoethanol at 100 °C (~280 kDa band disappeared, ~70 kDa band weakened); also after incubation with 2 mM dUMP and 2 mM mTHF (bands unchanged); anti-His-tag blot", "data": [{"protein": "TYMS (Cys210Gly) (enzyme, human, UniProt P04818-1 1-313, looked up, thymidylate synthase (TYMS), human, NM_001071.2, with Cys210Gly made by fusion PCR, in pET-28a(+); Same construct as m1 with the point mutation; source: expressed from pET-28a, purified (Ni-NTA twice); not shown: His6, N-terminal, kept) MPVAGSELPRRPLPPAAQERDAEPRPPHGELQYLGQIQHILRCGVRKDDRTGTGTLSVFGMQARYSLRDEFPLLTTKRVFWKGVLEELLWFIKGSTNAKELSSKGVKIWDANGSRDFLDSLGFSTREEGDLGPVYGFQWRHFGAEYRDMESDYSGQGVDQLQRVIDTIKTNPDDRRIIMCAWNPRDLPLMALPPCHALCQFYVVNSELSGQLYQRSGDMGLGVPFNIASYALLTYMIAHITGLKPGDFIHTLGDAHIYLNHIEPLKIQLQREPRPFPKLRILRKVEKIDDFKAEDFQIEGYNPHPTIKMEMAV", "values": [{"measurement": "binding result", "value": "binds"}]}, {"protein": "TYMS (Cys180Gly) (enzyme, human, UniProt P04818-1 1-313, looked up, thymidylate synthase (TYMS), human, NM_001071.2, with Cys180Gly made by fusion PCR, in pET-28a(+); Same construct as m1 with the point mutation; source: expressed from pET-28a, purified (Ni-NTA twice); not shown: His6, N-terminal, kept) MPVAGSELPRRPLPPAAQERDAEPRPPHGELQYLGQIQHILRCGVRKDDRTGTGTLSVFGMQARYSLRDEFPLLTTKRVFWKGVLEELLWFIKGSTNAKELSSKGVKIWDANGSRDFLDSLGFSTREEGDLGPVYGFQWRHFGAEYRDMESDYSGQGVDQLQRVIDTIKTNPDDRRIIMGAWNPRDLPLMALPPCHALCQFYVVNSELSCQLYQRSGDMGLGVPFNIASYALLTYMIAHITGLKPGDFIHTLGDAHIYLNHIEPLKIQLQREPRPFPKLRILRKVEKIDDFKAEDFQIEGYNPHPTIKMEMAV", "values": [{"measurement": "binding result", "value": "binds"}]}]}
